Target: ABI2, O04719-1
Sequence (O04719 whole entry): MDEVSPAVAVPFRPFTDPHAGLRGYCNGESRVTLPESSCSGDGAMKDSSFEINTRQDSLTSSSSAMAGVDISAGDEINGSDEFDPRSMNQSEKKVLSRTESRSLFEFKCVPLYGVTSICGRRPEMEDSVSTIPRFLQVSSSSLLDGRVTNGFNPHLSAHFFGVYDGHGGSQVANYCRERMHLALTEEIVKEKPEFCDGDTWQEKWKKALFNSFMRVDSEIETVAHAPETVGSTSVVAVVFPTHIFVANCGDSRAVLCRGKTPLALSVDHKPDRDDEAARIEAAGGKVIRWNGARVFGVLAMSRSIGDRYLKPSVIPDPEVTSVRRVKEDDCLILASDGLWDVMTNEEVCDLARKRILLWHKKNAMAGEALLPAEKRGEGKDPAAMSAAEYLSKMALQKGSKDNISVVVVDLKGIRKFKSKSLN

Sequence of Rac-like GTP-binding protein ARAC10 (Arabidopsis thaliana (Mouse-ear cress)), O82481 D123A (O82481 whole entry D123A): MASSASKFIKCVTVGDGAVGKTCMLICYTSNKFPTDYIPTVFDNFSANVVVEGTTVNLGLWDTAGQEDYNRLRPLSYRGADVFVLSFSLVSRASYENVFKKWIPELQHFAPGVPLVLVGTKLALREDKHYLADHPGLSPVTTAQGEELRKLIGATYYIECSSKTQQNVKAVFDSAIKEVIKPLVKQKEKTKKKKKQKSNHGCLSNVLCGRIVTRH

With “Rac-like GTP-binding protein ARAC10 (Arabidopsis thaliana (Mouse-ear cress)), O82481 D123A” the “effect of a mutation on the interaction” value was “disrupting interaction strength”.
